The text below walks through data of the nanobody polyreactivity screen of Harvey et al. (2022).

The data set in a line: yeast display, Sf9 membrane polyspecificity reagent, FACS + sequencing; frameworks hold sequencing errors. In short, it runs like this:
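Nanobodies came from a synthetic yeast display library in Saccharomyces cerevisiae BJ5465, induced with galactose for 36–48 hours and stained for 1 hour at 4 °C with 10% biotinylated, detergent-solubilized Sf9 membrane reagent. Cells were enriched on streptavidin microbeads and then FACS-sorted, with low and high (top ~1%) gates set on anti-HA fluorescence for expression and streptavidin fluorescence for reagent binding. Each polyreactivity label reflects the gate a clone came from. Genes were amplified by colony PCR, sequenced by MiSeq 2 × 250 and filtered by CDR length.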
As for “QVQLVESGGGLVQAGGSLRLSCAASGIIFKYYAMGSYRQAPGKERELVAAITRSGGSTYYADSVKGRFTISRDNAKNTVYLQMNSLKPVDTGVYYCAAQTGYSYGITWQFTKYNYWGQGTQVTVSS”, the “polyreactivity (PSR sort gate)” value is on record as “low polyreactivity”.

For the sequence “QVQLVESGGGLVQAGGSLRLSCAASGIIFKYYAMGWYRQAPGKERELVAAISRSSGSTYYADSVKGRFTISRDNAKKTVYLQMNSLKPEDTAVYYCAASGWPQKYDYWGQGTQVTVSS”, the “polyreactivity (PSR sort gate)” value is “high polyreactivity”.

As for “QVQLVESGGGLVQAGGSLRLSCAASGIIFKYYSKGWYRQAPGKERELVAAITSGGSTNYADSVKGRFTISRDNAKNTVYLQMNSLKPEDTAVYYCAKRFYYRNRFDYWGQGTQETVSS”, the “polyreactivity (PSR sort gate)” value is “low polyreactivity”.

Regarding “QVQLVESGGGLVQAGGSLRLSCAASGIIFLANAMGWYRQAPGKERELVAAISLDGGRTYYADSVKGRFTISRDNAKNTVFLQMNSLKPEDTAVYYCAADYGYVILYEYWGQGTQVTVSS”, the “polyreactivity (PSR sort gate)” value was “low polyreactivity”.

For “QVQLVESGGGLVQAGGSLRLSCAASGIIFLGYVMGWYRQAPGKERELVAAISSSGGRTYYADSVKGRFTISRDNAKNTVYLQMNSLKPEDTAVYYCATRTLQPGYTYPRYYWGQGTQVTVSS”, the “polyreactivity (PSR sort gate)” value is given as “high polyreactivity”.

For “QVQLVESGGGLVQAGGSLRLSCAASGIIFLNNAMGLYIQAPGKERELVAVISFIGDSTYYADSVKGRFTISRDNSKNSVYLQMNSLKPEDTAVYYCAADYYLPYWFFVGYDYWGQGTQVTVSS”, the “polyreactivity (PSR sort gate)” value is on record as “low polyreactivity”.

For “QVQLVESGGGLVQAGGSLRLSCAASGIIFLTNAMGWYRQAPGTVRELVAAITAIGGSTYYADSVKGRFTISRDNAKNTVYLQMNSLKPEDTAVYYCAADCSYVYYLYDYWGQGTQVTVSS”, the “polyreactivity (PSR sort gate)” value is reported as “low polyreactivity”.

Regarding “QVQLVESGGGLVQAGGSLRLSCAASGIIFNLYAMGWYRQAPGKERELVAAISWSGGSTYYADSVKGRFTISRDNAKNTVYLQMNSLKPEDTAVYYCATSFLYPYFDEDDYWGQGTQVTVSS”, the “polyreactivity (PSR sort gate)” value is recorded as “high polyreactivity”.

In the case of “QVQLVESGGGLVQAGGSLRLSCAASGIIFNWYAMGWYRQAPGKERELVAAISGSGDITYYADSVKGRFTISRDNAKNTVYLQMNSLKPEDTAVYYCAADPWTYWEDYDYWGQGTQVTVSS”, the “polyreactivity (PSR sort gate)” value is “low polyreactivity”.

On to “QVQLVESGGGLVQAGGSLRLSCAASGIIFNWYAMGWYRQAPGKERELVAGISTSGGSTYYADSVKGRFTISRDNAKNTVYLQMNSLKPEDTAVYYCAAGRRGAWQYGYYYWGQGTQVTVSS”, for which the “polyreactivity (PSR sort gate)” value is “high polyreactivity”.

On to “QVQLVESGGGLVQAGGSLRLSCAASGIIFNYNAMGWYRQAPGKERELVATISSGDSTNYADSVKGRFTISRDNAKNTVYLQMNSLKPEDTAVYYCAAESPSVFDGYAQLYIILEDYWGQGTQVTVSS”, for which the “polyreactivity (PSR sort gate)” value is recorded as “low polyreactivity”.

With “QVQLVESGGGLVQAGGSLRLSCAASGIIFPGYTMGWSRQAPGPEREVVAAISSGGRTNYADSVKGRFTISRDNAKNTVYLQMNSLKPEDTAVYYCAATRVASLGSPMYYCGQGTQVTVSS”, the “polyreactivity (PSR sort gate)” value is recorded as “high polyreactivity”.

For the sequence “QVQLVESGGGLVQAGGSLRLSCAASGIIFPGYVMGWYRQAPGKERELVAAISYSGGRTYYADSVKGRFTISRDNAKNTVYLQMNSLIPEDTAVYYCAARKSYFTSTDRYYGYYYHQSNYLGQGTQVTVSS”, the “polyreactivity (PSR sort gate)” value is listed as “high polyreactivity”.

As for “QVQLVESGGGLVQAGGSLRLSCAASGIIFPRNAMGWYRQAPWKERELVAGISRSGGSTSYADSVKGRFTFSRDNAKNTVYLQMNSLKPEDTAVFYCASRGHPFKKSYGSWGQGTQVTVSS”, the “polyreactivity (PSR sort gate)” value is “high polyreactivity”.

In the case of “QVQLVESGGGLVQAGGSLRLSCAASGIIFPRYVMGWYRQAPGKERELVAAINRSGGSTYYADSVKGRFTISRDYAKNTVYLQMNSLKPEDTAVYYCAALDVRSYRGGYWGQGTQVTVSS”, the “polyreactivity (PSR sort gate)” value is recorded as “high polyreactivity”.

“QVQLVESGGGLVQAGGSLRLSCAASGIIFPSYVMGWYRQAPGKERELVARISARGGRTYYADSVKGRFTISRDNAKNTVYLQMNSLKPEDTAVYYCAARWGITTWYDYWGQGTQVTVSS”: the “polyreactivity (PSR sort gate)” value is given as “high polyreactivity”.

With “QVQLVESGGGLVQAGGSLRLSCAASGIIFPVYTKGWYRQAPGKERELVAAISTSGGRTYYADSVKGRFTISRDNAKNTVYLQMNSLKPEYTAVYYCAAKRYTRKAGYYYWGQGTQVTVSS”, the “polyreactivity (PSR sort gate)” value is “high polyreactivity”.

For the sequence “QVQLVESGGGLVQAGGSLRLSCAASGIIFPYNVMGWYRQAPGKERELVAAITRGAASTYYADSVKGRFTISRDNAKNTVYLQMNSLKPEDTAVYYCNADGTWRTYNYWGQGTQVTVSS”, the “polyreactivity (PSR sort gate)” value is on record as “high polyreactivity”.

As for “QVQLVESGGGLVQAGGSLRLSCAASGIIFQYYAMGWYRQAPGKERELVAAINSGTTTYYADSVKGRFTITRDNAKNTVYLQMNSLKPEDTAVYYWNKDWHSQDFSAYNSYDYWGQGTQVTVSS”, the “polyreactivity (PSR sort gate)” value is listed as “low polyreactivity”.

As to “QVQLVESGGGLVQAGGSLRLSCAASGIIFRFYAMGWYRQAPGKERELVAAIRTSGGSTYYADSVKGRFTISRDNAKNTVYLQMNSLKPEDTAGYYCAARFYNGWTKHNYWGQGTQVTVSS”, the “polyreactivity (PSR sort gate)” value is “high polyreactivity”.

Take “QVQLVESGGGLVQAGGSLRLSCAASGIIFRFYSMGWYRKEPGKERELVAAITSSGGSTYYADSEKGRFTISRDNAKNTVYLQMNSLKPEDSAVYYCATSTGPYRGRFYYWGQGTQVTGSS”: the “polyreactivity (PSR sort gate)” value is listed as “high polyreactivity”.

Regarding “QVQLVESGGGLVQAGGSLRLSCAASGIIFRGNAMGWYRQAPGKERELVAAISRSGRTNYADSVKGRFTISRDNAKNTVYLQMNSLKPEDTAVYYCAVDKRYGRVVGRDYDYWGQGTQVTVSS”, the “polyreactivity (PSR sort gate)” value was “high polyreactivity”.

Consider “QVQLVESGGGLVQAGGSLRLSCAASGIIFRGNSMGWYRQAPGKERELVAAIRFSGGSTYYADSVKGRFTISRDYAKNTVYLQMNSLKPEDTAVYYFAATRRRYGSTTSEYYYWGQGTQVTVSS”, for which the “polyreactivity (PSR sort gate)” value is “high polyreactivity”.

Take “QVQLVESGGGLVQAGGSLRLSCAASGIIFRGYAMGWYRQAPGKERELVARISITGGRTYYADSVKGRFTISRDNAKNTVYLQMNSLKPEDTAVYYCAAGKYVRTVRYDYWGQGTQVTVSS”: the “polyreactivity (PSR sort gate)” value is given as “high polyreactivity”.

In the case of “QVQLVESGGGLVQAGGSLRLSCAASGIIFRGYPMGWYRQAPGKERELVARISITGGRTYYADSVKGRFTSSRDNAKNTVELQMNSLKPEDTAVYYCAAGKYVSTVRYDYWGQGTQVTVAS”, the “polyreactivity (PSR sort gate)” value is given as “high polyreactivity”.

On to “QVQLVESGGGLVQAGGSLRLSCAASGIIFRIYAMGWYRQAPGKEREFVAAISGSGDSTYYADSVKGRFTISRDNAKNTVYLQMNSLKPEDTAVYYCAARAIFRQGDRIYDSWGQGTQVTVSS”, for which the “polyreactivity (PSR sort gate)” value is on record as “high polyreactivity”.

With “QVQLVESGGGLVQAGGSLRLSCAASGIIFRIYAMGWYRQAPGKERELVAAITYIGTSTYYADSVKGRFTISRDNAKNTVYLQMNSLKPEDTAVYFCYFYYVFRSDYWGQGTQVTVSS”, the “polyreactivity (PSR sort gate)” value is “low polyreactivity”.

As to “QVQLVESGGGLVQAGGSLRLSCAASGIIFRKYAMGRYRQAPGKERELVAAISSSGGSTYYADSVKGRFTISRDNAKNTVYLQMNSLKPEDTAVYYCAAERQVTNKIFNYWGQGTQVTVSS”, the “polyreactivity (PSR sort gate)” value is reported as “high polyreactivity”.

In the case of “QVQLVESGGGLVQAGGSLRLSCAASGIIFRLYAMGWYRQAPGKERELVAAISSGGSTYADSVKGRFTISRDNAKNTVYFQMNSLKPEDTAVYYCAAGRVWHLYWYNYWGQGTQVTVSS”, the “polyreactivity (PSR sort gate)” value is on record as “high polyreactivity”.

Regarding “QVQLVESGGGLVQAGGSLRLSCAASGIIFRLYAMGWYRQAPGKERELVAAITSRGGSTYYADSVKGRFTISRDNAKNTVYLQKNSLKPEDTAVYYCAARPVYSGYDYWGQGPQVTVSS”, the “polyreactivity (PSR sort gate)” value is “high polyreactivity”.

Take “QVQLVESGGGLVQAGGSLRLSCAASGIIFRNYAMGWYRQAPGKERELVATIRYRGGRTYADSVKGRFTISRDNAKNTVYLQMNSLKPEDTAVYYCNTYARYAYLTGRMEYWGQGTQVTVSS”: the “polyreactivity (PSR sort gate)” value was “high polyreactivity”.

For the sequence “QVQLVESGGGLVQAGGSLRLSCAASGIIFRPYTMGWYRQAPGKERELVAAISQSGGRTYYADSVKGRFTISRDNAKNTVYLQMNSLKPEDTAVYYCNVLGSYSYYPWPIPGYDYWGQGTQVTVSS”, the “polyreactivity (PSR sort gate)” value is listed as “high polyreactivity”.

Take “QVQLVESGGGLVQAGGSLRLSCAASGIIFRQYAMGWYRQAPGKERELVAGISSRGGSTYYADSVKGRFTISRDNAKNTVYLQMNSLKPEDTAVYYCAARYPGYFYHLDYWGQGTQVTVSS”: the “polyreactivity (PSR sort gate)” value was “low polyreactivity”.

With “QVQLVESGGGLVQAGGSLRLSCAASGIIFRRYAMGWYRQAPGKERELVAAITRGGITYYADSVKGRFTISRDNAKNTVYLQMNSLKPEDTAVYYCAATYSGTYSLGRGYDYWGQGTQVTVSS”, the “polyreactivity (PSR sort gate)” value is “low polyreactivity”.

Consider “QVQLVESGGGLVQAGGSLRLSCAASGIIFRRYAMGWYRQAPGKERELVAVISSGGSTNYADSVKGRFTISRDNAKNTVYLQMYSLKPEDTADYYCAAPSQSRGYYYWGQGTQVTVSS”, for which the “polyreactivity (PSR sort gate)” value is given as “high polyreactivity”.

For the sequence “QVQLVESGGGLVQAGGSLRLSCAASGIIFRTYAMGCYRQAPGKERELVAAITGSGGITYYADSVKGRFTISRDNAKNTVYLQMNSLKPEDTAVYYCAARGTRDGVQRYGYWGQGTQVTVSS”, the “polyreactivity (PSR sort gate)” value was “high polyreactivity”.

For the sequence “QVQLVESGGGLVQAGGSLRLSCAASGIIFRTYAMGWYRQAPGKERELVAAITGRGSNTYYADSVKGRFTISRDNAKNTVYLQMNSLKPEETAVYYCNARYYDYRVALRYDYWGQGTQVTVSS”, the “polyreactivity (PSR sort gate)” value was “high polyreactivity”.

“QVQLVESGGGLVQAGGSLRLSCAASGIIFRVYTMGWYRQAPGKERELVAGLSSGDSTSYADSVKGRFTISRDNAKNTVYLQMNSLKPEDTAVYYCNAVAYYSYSANFRNAYDYWGQGTQVTVSS”: the “polyreactivity (PSR sort gate)” value was “low polyreactivity”.

Consider “QVQLVESGGGLVQAGGSLRLSCAASGIIFRYNAMGWSRQAPGKERELVATISKRGGSTRYADSVKGRFTISRDNAKNTVYLQMNSLKPEDTAVYYCAAQRPYYNGYDYWGQGTQVTVSS”, for which the “polyreactivity (PSR sort gate)” value was “high polyreactivity”.

Regarding “QVQLVESGGGLVQAGGSLRLSCAASGIIFRYNTMGWYRQAPGKERELVAAISKRGGSTYYADSVKGRFTISRDNAKNTVYLQMNSLKPEDTAVYYCAARYYSASYYNYGYWGQGTQVTVSS”, the “polyreactivity (PSR sort gate)” value is recorded as “high polyreactivity”.
